Columns and labels:
NDRG2 = molecular target: T1, NDRG2 (Homo sapiens, UniProt Q9UN36); conditions: read-out: IC50 for enzymatic activity of NDRG2; concentration of NDRG2 protein 25 ng/ul
T1 sequence (Q9UN36 1-357 isoform Q9UN36-2): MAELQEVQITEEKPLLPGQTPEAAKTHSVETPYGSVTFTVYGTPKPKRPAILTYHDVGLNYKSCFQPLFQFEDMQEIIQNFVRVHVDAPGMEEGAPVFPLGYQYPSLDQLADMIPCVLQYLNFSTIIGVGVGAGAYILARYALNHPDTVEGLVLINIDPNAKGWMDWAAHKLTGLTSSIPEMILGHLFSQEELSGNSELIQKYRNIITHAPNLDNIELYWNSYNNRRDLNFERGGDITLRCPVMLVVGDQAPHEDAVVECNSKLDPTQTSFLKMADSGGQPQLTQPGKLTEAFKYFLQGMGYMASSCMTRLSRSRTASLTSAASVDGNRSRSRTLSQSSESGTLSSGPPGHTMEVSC
Method: The GST-NDRG2 protein (10 ng to 250 ng) was added to a reaction solution (pH 5.0) consisting of 100 mM sodium acetate, 0.8 mM DTT, and 10 mM pNPP, and the mixture was allowed to react at 30° C. for 10 minutes. After addition of 500 μl of 5 M NaGH, the reaction was stopped and OD 410 nm of the absorption wavelength for pNP (p-Nitrophenol) was measured. A standard curve was prepared at a concentration of 0.2 to 1.6 nmol of pNP, and an enzyme activity was determined by converting the absorbance into the concentration of pNP.

PTEN = molecular target: T2, PTEN (Homo sapiens, UniProt P60484); assay: In vitro dephosphorylation of FLAG-PTEN purified from ATL cell line Su9T-01, Western blot; format: biochemical; conditions: 10 ng/ml FLAG-PTEN, 30° C., 30 minutes; phosphorylation-specific anti-PTEN antibodies
T2 construct: made in house; host or cells: ATL cell line Su9T-01, transfected with PTEN/pCMV26; purified on anti-FLAG M2 gel
Method: ATL cell line Su9T-01 of 1×10^7 cells were transfected with 20 μg of PTEN/pCMV26 expression vector by electroporation. On day 2 after the transfection, the cells were collected and 500 μl of RIPA buffer solution was added to prepare a cell extract solution. […] The reaction solution was washed with PBS buffer solution, and eluted with 3×FLAG peptide (100 μg/ml).
A reaction solution composed of 25 ng of GST or GST-NDRG2 or one unit of bacterial alkaline phosphatase (BAP) (TAKARA) was reacted with a reaction solution consisting of 20 mM magnesium acetate, 300 μg/mL BSA, 30 μM EDTA, 0.03% β-mercaptoethanol, and 10 ng/ml FLAG-PTEN at 30° C. for 30 minutes. Phosphorylation state of PTEN was analyzed by the Western blot method using anti-PTEN antibodies specific to each phosphorylation.

[1] = pNPP (p-nitrophenyl phosphate) assay of phosphatase activity; format: biochemical; conditions: pH 5.0, 10 mM pNPP, 30° C., 10 minutes
Method: The GST-NDRG2 protein (10 ng to 250 ng) was added to a reaction solution (pH 5.0) consisting of 100 mM sodium acetate, 0.8 mM DTT, and 10 mM pNPP, and the mixture was allowed to react at 30° C. for 10 minutes. After addition of 500 μl of 5 M […], the reaction was stopped and OD 410 nm of the absorption wavelength for pNP (p-Nitrophenol) was measured. A standard curve was prepared at a concentration of 0.2 to 1.6 nmol of pNP, and an enzyme activity was determined by converting the absorbance into the concentration of pNP.

T2 sequence (P60484 whole entry): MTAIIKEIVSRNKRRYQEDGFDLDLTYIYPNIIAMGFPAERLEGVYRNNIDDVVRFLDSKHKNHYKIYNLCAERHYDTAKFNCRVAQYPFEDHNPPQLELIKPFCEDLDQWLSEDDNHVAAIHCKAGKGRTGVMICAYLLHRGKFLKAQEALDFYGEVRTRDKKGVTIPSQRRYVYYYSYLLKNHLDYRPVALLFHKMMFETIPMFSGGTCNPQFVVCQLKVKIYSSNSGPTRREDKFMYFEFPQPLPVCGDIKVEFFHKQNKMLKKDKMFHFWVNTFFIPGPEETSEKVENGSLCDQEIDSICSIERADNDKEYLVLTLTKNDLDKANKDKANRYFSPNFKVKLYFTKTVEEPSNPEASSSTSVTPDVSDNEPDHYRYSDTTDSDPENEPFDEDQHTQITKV

Compound	IC50 (NDRG2)	dephosphorylation of PTEN (PTEN)	production of pNP (phosphatase activity) [1]
[F-].[Na+] [sodium fluoride]	0.383 µM		
BAP: bacterial alkaline phosphatase (TAKARA), positive control		dephosphorylation effects were recognized	
GST: Glutathione S-Transferase protein, negative control		not recognized	not observed

Reference: patent publication US9023343B2, “Phosphorylation-inhibiting agent or dephosphorylating agent for PTEN” (Miyazaki Prefecture, priority 2009, dated 2015)
